Legend:
[1] = 277 nm; ref 11 (SI); cited from earlier work
in vivo = conditions: male, athymic nude, mouse, intravenous, total radioactivity, 2 h post injection, n = 4
Description: (§1) For in vivo evaluation, athymic nude mice-bearing bilateral PC-3 PIP/flu (PSMA^+/PSMA^–) tumor xenografts were used (Figure ).
(§2) 5.1.1 Urine metabolite analysis
(§3) Metabolite analysis was performed by analyzing aliquots of 100 µL of mouse urine collected during biodistribution studies. If the collected urine volume was less than 100 µL, 1X DPBS was added in order to bring it up to a final volume of 100 µL. In cases where the radioactivity present in urine decayed to levels too low for detection by HPLC, fractions eluted from the radioHPLC were collected every 30 seconds, and the amount of radioactivity was estimated via gamma counting (Hidex Automatic Gamma Counter). The chromatogram was then reconstructed by plotting the recorded counts per minute recorded for each fraction […]
(§4) 5.2 In vitro optical imaging
(§5) Tumor tissues were harvested from male, nude, athymic mice bearing xenografts from PC3-PIP (PSMA+) and PC3-flu (PSMA-) were fixed for (24) hours in 10% neutral buffered formalin, processed and embedded into paraffin blocks. Tissues were sectioned at 5µm, dried and then deparaffinized with a 25-minute oven bake at 60°C, followed by a series of xylene and alcohol washes
(§6) Antigens were prepared in PerkinElmer’s 1X Antigen Retrieval pH 9.0 (AR900250ML) for 8 minutes in the microwave. Tissue sections were blocked with 1X Antibody Diluent/Block buffer (Akoya).
(§7) Ab-PSMA, natEu-pepa-pic2-C-Hex-KuE and DAPI staining.
(§8) Tissues were stained with Ab-PSMA (Ventana 760-6076; 11.75 µg/mL; 100uL per slide) for 30 minutes at room temperature. Slides were washed with TBS-T and secondary goat anti-rabbit was applied for 10 minutes at room temperature. Slides were washed with TBS-T and Akoya’s Opal dye 520 was applied for 10 minutes at room temperature. Antigen retrieval and blocking steps were performed again.
(§9) An aqueous solution of natEu-pepa-pic2-C-Hex-KuE (10 µM) was diluted at 1:1 with 1X Diluent/Block (Akoya) and 100 µL were applied per slide for 2 hours at room temperature. For DAPI staining, DAPI working solution (Akoya) was applied for 10 minutes at room temperature before mounting with ProLong™ Gold Antifade Mountant. Slides were imaged by Nuance Multispectral Scope at 20x objective.
(§10) 5.3 In vivo biodistribution in PSMA +/- mice models, PET-CT and SPECT imaging.
(§11) Male, nude, athymic mice were purchased from Jackson Laboratory. Ten days preceding the imaging study, mice were implanted with 1 × 10^6 cells (PC-3 PIP on the right, PC-3 flu on the left shoulder) in 100 µL of a 1:2 mixture of DPBS 1X/matrigel matrix subcutaneously.
(§12) A solution of 100 µL of labeled radiotracer was administered via tail vein injection into 8–10-week-old male nude mice (n = 4 per cohort) bearing PSMA+/- tumors.
(§13) For biodistribution studies, mice were euthanized at 2 hours (n=4) post-injection of the radio tracer. Organs were extracted, intestinal content removed, and activity assessed via a gamma counter. Biodistribution analysis values are represented as percentage of injected dose per gram of organ weight (% ID/g).

[2] = system: PC-3 PIP/flu (PSMA+/PSMA–) tumor xenografts; conditions: biodistribution 2 h p.i. and SPECT 0.5-25 h
Description: Following radiochemical labeling and formulation in PBS, [^177Lu]­Lu-pepa-pic2-C-hex-KuE and [^161Tb]­Tb-pepa-pic2-C-hex-KuE were evaluated by single point biodistribution (2 h p.i.) and serial SPECT imaging at 0.5, 1, 1.5, 4, and 25 h in direct comparison with the clinically validated radiopharmaceutical [^177Lu]­Lu-PSMA-617 as well as [^161Tb]­Tb-PSMA-617 (Figure d–e, Supporting Information, Figures S52–S55, and Table S2).
Representative PET-CT (Y-86) or SPECT (Lu-177, Tb-161) images were acquired at different time points starting as early as 0.5 h and up to 25-hours post administration of radiotracer. Mice were initially anesthetized with isoflurane gas at 4% isoflurane in oxygen and maintained during scans at 2.0%. PET-CT and SPECT images were normalized to units of percentage of injected dose per cubic centimeter and presented as maximum intensity projected scan (MIPS) images.
PET-CT scans were acquired in a Siemens Inveon Hybrid MicroPET/CT Scanner (Siemens Medical Solutions USA, Inc., Knoxville, TN), and image processing and region of interest (ROI) analysis conducted using the Inveon Research Workstation analysis software. ROI analysis of the PET/CT images was used to estimate tracer uptake in major organs or tissues, and quantitative results are given as percentage of injected dose per cubic centimeter (%ID/cc). […]

[3] = system: PC-3 PIP/flu (PSMA+/PSMA–) tumor xenografts; assay: in vivo; conditions: 2 h post injection, n = 4, listed as [161Tb]TbIII-pepa-pic2-C-Hex-KuE
Description: as §1, §2, §3, §4, §5, §6, §7, §8, §9, §10, §11, §12, §13

Molecule: PSMA-617
- ε277 [1]: 4268 M⁻¹ cm⁻¹

Molecule: COCCOCCOCCOc1ccc(C#Cc2cc(CN3CCN(Cc4cccc(C(=O)O)n4)CCN(Cc4cc(SC[C@H](N)C(=O)NCCCCCC(=O)NCCCC[C@H](NC(=O)N[C@@H](CCC(=O)O)C(=O)O)C(=O)O)cc(C(=O)O)n4)CC3)nc(C(=O)O)c2)cc1 [[177Lu]Lu-pepa-pic2-C-Hex-KuE, metal not drawn]
- tissue uptake at 2 h (in vivo; PSMA+ tumor, Tumor +, PSMA+ tumor): 4.57 ± 0.9 %ID/g
- tissue uptake at 2 h (in vivo; blood): 0.3 ± 0.1 %ID/g
- tissue uptake at 2 h (in vivo; bone): 0.25 ± 0.02 %ID/g
- tissue uptake at 2 h (in vivo; heart): 0.19 ± 0.07 %ID/g
- tissue uptake at 2 h (in vivo; kidney): 25.9 ± 8.51 %ID/g
- tissue uptake at 2 h (in vivo; large intestine): 0.49 ± 0.27 %ID/g
- tissue uptake at 2 h (in vivo; liver): 0.5 ± 0.05 %ID/g
- tissue uptake at 2 h (in vivo; lungs): 0.47 ± 0.26 %ID/g
- tissue uptake at 2 h (in vivo; muscle): 0.11 ± 0.05 %ID/g
- tissue uptake at 2 h (in vivo; small intestine): 0.33 ± 0.27 %ID/g
- tissue uptake at 2 h (in vivo; spleen): 0.53 ± 0.24 %ID/g
- uptake of activity in the PSMA-expressing tumor [2]: persistent, statistically significant uptake

Molecule: COCCOCCOCCOc1ccc(C#Cc2cc(CN3CCN(Cc4cccc(C(=O)O)n4)CCN(Cc4cc(SC[C@H](N)C(=O)NCCCCCC(=O)NCCCC[C@H](NC(=O)N[C@@H](CCC(=O)O)C(=O)O)C(=O)O)cc(C(=O)O)n4)CC3)nc(C(=O)O)c2)cc1 [[161Tb]Tb-pepa-pic2-C-Hex-KuE, metal not drawn]
- tissue uptake at 2 h (in vivo; PSMA- tumor, Tumor -): 0.7 ± 1.59 %ID/g
- Blood [3]: 0.45 ± 0.06 % ID/g
- Bone [3]: 0.24 ± 0.03 % ID/g
- Heart [3]: 0.21 ± 0.03 % ID/g
- Kidney [3]: 17.89 ± 2.70 % ID/g
- Large Intestine [3]: 0.98 ± 1.44 % ID/g
- Liver [3]: 0.64 ± 0.09 % ID/g
- Lungs [3]: 0.50 ± 0.07 % ID/g
- Muscle [3]: 0.11 ± 0.03 % ID/g
- Small Intestine [3]: 0.33 ± 0.37 % ID/g
- Spleen [3]: 0.50 ± 0.09 % ID/g
- Tumor + ([3]; PSMA+ tumor): 7.33 ± 1.59 % ID/g

Source: paper PMC12703665, “A Trifunctional, Rare-Earth Theranostic Chelator Platform to Enable Diagnostic Nuclear Imaging, Surgical Resection, and Radiotherapy” (Journal of the American Chemical Society, 2025)
